Target: tetrodotoxin (TTX)-resistant variant of sodium channel Nav1.6
Experiment: cell-based or functional assay

full-length FHF2A protein (from UniProt Q92913 1-245)
channels not recovering from inactivation within 20 msec (two-pulse whole cell voltage clamp, FIG. 2) (fraction of channels): 0.33
percent of channels undergoing long-term inactivation (voltage dependence protocol, FIG. 4): 35 to 40%

Source: patent US20120244615A1
